Test results: US20060275811A1 (CANON, published 2006)

Target: T1, hen egg-white lysozyme (hen, UniProt P00698 19-147)
T1 construct: mature; also called HEL; target substance
Assay: SPR (BIAcore X), HEL amine-coupled to CM5 chip, polypeptide at 50, 100 and 200 nM in PBS-T
Description: The strains are cultured at 30° C. for 16 hours in ampicillin (100 μg/ml)-selective LB medium. IPTG is added thereto at the final concentration of 1 mM, followed by additional 16-hour culture to induce protein expression. The bacterial cells collected by centrifugation are subjected to osmotic pressure treatment (the bacterial cells are mixed with 0.5 M sucrose solution and supplemented with a 5-fold volume of pure water) and disrupted by French press to obtain as soluble fractions, the proteins of interest present in the E. coli periplasms. Next, the functional polypeptide chains are purified with HEL columns (HEL is adsorbed and immobilized onto CNBr-activated Sepharose 4B (Code No. 17-0430-01 (Amersham)); the immobilization is performed according to the accompanying protocol). The binding ability between the functional polypeptides and the target substances (HEL) is evaluated by using BIAcore (registered trademark) X (SPR measurement apparatus). […] Next, the molarity of the functional polypeptide chain is adjusted to 50 nM, 100 nM and 200 nM for the first functional polypeptide chain (HyHEL10 scFv-(G4S)3-WinZipA1), the second functional polypeptide chain (D1.3 scFv-(G4S)3-WinZipB1) and a 1:1 mixture of the first and second functional polypeptide chains by using PBS-T (0.1% Tween 20) buffer. […]

T1 sequence (P00698 19-147): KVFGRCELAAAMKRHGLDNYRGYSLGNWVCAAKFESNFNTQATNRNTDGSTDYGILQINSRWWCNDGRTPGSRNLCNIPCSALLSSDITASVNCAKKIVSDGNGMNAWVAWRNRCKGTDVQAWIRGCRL

- Kd: 0.3 nM
B1: HyHEL10 scFv-(G4S)3-WinZipA1 (scFv)
scFv: DIQLQESGPSLVKPSQTLSLTCSVTGDSITSDYWSWIRKFPGNRLEYMGYVSYSGSTYYNPSLKSRISITRDTSKNQYYLDLNSVTTEDTATYYCANWDGDYWGQGTLVTVSAGGGGSGGGGSGGGGSDIVLTQSPATLSVTPGNSVSLSCRASQSIGNNLHWYQQKSHESPRLLIKYASQSISGIPSRFSGSGSGTDFTLSINSVETEDFGMYFCQQSNSWPYTFGGGTKLIITAGGGGSGGGGSGGGGSTVAQLEEKVKTLRAQNYELKSRVQRLREQVAQLA
notes: Secreted from E. coli with the pelB signal of a modified pET-20b(+) vector and purified on a HEL column; also called first functional polypeptide chain; first polypeptide chain
